Source: patent US11124558B2, “Use of tetranectin and peptide agonists to treat inflammatory diseases” (The Feinstein Institutes for Medical Research, priority 2017, dated 2021)
“Also recorded” adds a separate entry of the source. Non-standard residues stand in square brackets, D forms with d. No end group written: not given here. Nle = CCCC[C@H](N)C(=O)O

Legend:
[1] = system: lethal sepsis (CLP), Balb/C mice; experiment: Lethal sepsis by cecal ligation and puncture (CLP), survival in mice; type: in vivo; conditions: male Balb/C mice, given intraperitoneally, survival monitored more than two weeks
Method: FIG. 6A-6C: Recombinant TN protected mice against lethal endotoxemia and sepsis. Male Balb/C mice were subjected to lethal endotoxemia (LPS, 5 mg/kg, i.p., Panel A) or sepsis by cecal ligation and puncture (CLP, Panel B, C), and recombinant TN produced in HEK293 (Panel A, B) or E. coli (Panel C) was given intraperitoneally at indicated dosing regimens. Animal survival rates were monitored for more than two weeks to ensure no later death. Shown in Panel B and C is a summary of two independent experiments with similar results.
(§1) FIG. 9: N-terminal deletion TN mutant protected mice against lethal sepsis. Male Balb/C mice were subjected to lethal sepsis by cecal ligation and puncture (CLP), and recombinant deletion mutant (ΔTN) was given intrapeitoneally at indicated dosing regimens. Animal survival rates were monitored for more than two weeks to ensure no later death. Shown was a summary of two independent experiments with similar results.
as §1, with “10:” for “9: N-terminal deletion”, “peptide agonist (P11)” for “mutant”, “TN peptide agonist, (P11, […]) (SEQ ID NO:11)” for “recombinant deletion mutant (ΔTN)”, “N=8-18 animals per group.” for “similar results.”
FIG. 13A-13B: Tetranectin peptide agonists (P2 and P2-M/Nle) protected mice against lethal sepsis. Male Balb/C mice were subjected to lethal sepsis by cecal ligation and puncture (CLP), and TN peptide agonist, P2 (55-KVHMKCFLAFTQTKTF-70) (13A) (SEQ ID NO:2) or P2-M/Nle (54-TKVH(Nle)KSFLAFTQTKT-69) (13B) (SEQ ID NO:13) was given intraperitoneally at indicated dosing regimens. Animal survival rates were monitored for more than two weeks to ensure no later death. Shown was a summary of independent experiment with N=10 animals per group. The Kaplan-Meier method was used to compare the difference in mortality rates between groups. *, P<0.05 versus “CLP+Vehicle” group.
Effects of TN or peptide agonist on LSI. Balb/C mice (both male and female, 7-8 weeks, 20-25 g) are subjected to lethal endotoxemia or sepsis as described above, and the recombinant TN is injected (i.p.) at various doses and time points (2, 24, and 48 h) after the onset of endotoxemia or sepsis. Their effects on the outcomes of LSI is assessed by comparing the long-term (two-week) survival rates between the TN-treated groups with saline vehicle-treated controls. By varying the time points (e.g., 2, 12, 24 or 36 h) when the first dose of TN will be given to animals, the therapeutic windows for the TN-based therapy is estimated. […] It will be critical to continue these exciting experiments using other dosing regimens to further validate TN's protective role in LSI.
To explore the therapeutic potential of the TN-based strategies, the efficacy of TN-specific peptide agonists that would recapitulate the HMGB1-inhibiting capacities is tested using both animal models of lethal endotoxemia and sepsis. A series of peptide agonists have been designed, and chemically synthesized or biologically expressed as recombinant peptide (Table 1, FIG. 7). Peptide agonists will be given to the endotoxemic or septic mice intraperitoneally at various doses and time points after the onset of endotoxemia or sepsis. Their effects on the outcomes of LSI is assessed by comparing the long-term (two-week) survival rates between the peptide agonist groups and the saline vehicle-treated controls.
TN-specific peptide agonists are tested that would recapitulate the HMGB1-inhibiting capacities using both animal models of lethal endotoxemia and sepsis. Peptide agonists are given to the endotoxemic or septic mice intraperitoneally at various doses and time points after the onset of endotoxemia or sepsis. […]

HMGB1 release = experiment: LPS/SAA-induced HMGB1 release, summary statement (cells not specified); type: cell-based
[2] = system: GRO/CXCL1 and ENA-78/CXCL5 secretion, HuPBMCs; experiment: Cytokine/chemokine secretion by HuPBMCs (Cytokine Antibody Arrays); type: cell-based; conditions: primary human monocytes / HuPBMCs, TN 20 μg/ml, 16 h
Method: Human blood was purchased from the Long Island Blood Bank, and HuPBMCs were isolated by density gradient centrifugation through Ficoll, and stimulated with recombinant TN (20 μg/ml) expressed in HEK293 or E. coli for 16 h. The extracellular levels of cytokines and chemokines were determined by Cytokine Antibody Arrays.
In light of the protective roles of these neutrophil-attracting chemokines, CXCL1/KC [67,68] and CXCL5/ENA-78 [69,70] in LSI, it is important to determine whether TN could modulate leukocyte infiltration to facilitate potential pathogen elimination during sepsis.

[3] = system: HMGB1 release, murine macrophage-like RAW264.7 cells; experiment: SAA-induced HMGB1 release in RAW264.7 cells (Western blotting); type: cell-based; conditions: 16 h, serum-free OPTI-MEM I
Method: Murine macrophage-like RAW264.7 cells were cultured in serum-free OPTI-MEM I medium, and stimulated with SAA in the absence of presence of ΔTN (residue 45-181) for 16 h at the indicated concentrations. The extracellular HMGB1 levels were determined by Western blotting, and expressed as % of stimulation in the presence of SAA alone.

| Molecule | protection against lethal sepsis (animal survival) [1] | protection against lethal sepsis (animal survival) ([1]; listed as synthetic peptide corresponding to the plasminogen-binding region (residue 143-1)) | attenuation of LPS/SAA-induced HMGB1 release (HMGB1 release) | release of neutrophil-attracting chemokines (CXCL1/GRO-α/KC and CXCL5/ENA-78) [2] | protection against lethal sepsis (animal survival) ([1]; listed as N-terminal deletion mutant of TN) | protection against lethal sepsis (animal survival) ([1]; listed as ΔTN) | inhibition of SAA-induced HMGB1 release [3] | inhibition of SAA-induced HMGB1 release ([3]; listed as ΔTN) |
| --- | --- | --- | --- | --- | --- | --- | --- | --- |
| KVHMKCFLAFTQTKTF (listed as Homo sapiens) [Peptide P2] | protected |  |  |  |  |  |  |  |
| QPDGGKTENCAVLSGAANGKWFDKRCRD (listed as Homo sapiens) [Peptide P11] | protected; also recorded: significant protection | dose-dependent and significant protection | dose-dependently attenuated | specifically stimulated |  |  |  |  |
| TKVH(Nle)KSFLAFTQTKT (TKVH[Nle]KSFLAFTQTKT) [P2-M/Nle] | protected |  |  |  |  |  |  |  |
| P12: Recombinant N-terminal deletion mutant of TN, residue 45-181, carbohydrate recognition domain (CRD), expressed in E. coli, SEQ ID NO:12 (protein, listed as Homo sapiens) ALQTVCLKGTKVHMKCFLAFTQTKTFHEASEDCISRGGTLGTPQTGSENDALYEYLRQSVGNEAEIWLGLNDMAAEGTWVDMTGARIAYKNWETEITAQPDGGKTENCAVLSGAANGKWFDKRCRDQLPYICQFGIV | significant protection |  | dose-dependently attenuated | specifically stimulated | significant protection | protected | dose-dependently attenuated | dose-dependently inhibited |
